Results from paper PMC10219652, “Insights into cargo sorting by SNX32 and its role in neurite outgrowth” (eLife, 2023).
Positions count from the first letter of the chain named. Numbers in names are those of the source.

Columns and labels:
GFP-SNX4 [1] = target: GFP-SNX4 (UniProt O95219); experiment: co-IP; GBP-IP as above with lysates of HeLa cells transiently transfected with wild-type or mutant GFP-SNX4 and HA-SNX32 (legend of Figure 1H); values are the ratio of HA to GFP band intensity
GFP-SNX4, O95219 = target: T1, GFP-SNX4, O95219; experiment: co-IP; GFP nanobody-based immunoprecipitation (GBP-IP): GST-GBP on glutathione sepharose beads incubated 2 hr at 4°C with extracts of HEK293T cells overexpressing GFP- and HA-tagged SNX proteins; washed with 1x PBS; immunoblot with anti-HA and anti-GFP; values are the ratio of HA to GFP band intensity; details: remark: other sources report otherwise
T1 chain: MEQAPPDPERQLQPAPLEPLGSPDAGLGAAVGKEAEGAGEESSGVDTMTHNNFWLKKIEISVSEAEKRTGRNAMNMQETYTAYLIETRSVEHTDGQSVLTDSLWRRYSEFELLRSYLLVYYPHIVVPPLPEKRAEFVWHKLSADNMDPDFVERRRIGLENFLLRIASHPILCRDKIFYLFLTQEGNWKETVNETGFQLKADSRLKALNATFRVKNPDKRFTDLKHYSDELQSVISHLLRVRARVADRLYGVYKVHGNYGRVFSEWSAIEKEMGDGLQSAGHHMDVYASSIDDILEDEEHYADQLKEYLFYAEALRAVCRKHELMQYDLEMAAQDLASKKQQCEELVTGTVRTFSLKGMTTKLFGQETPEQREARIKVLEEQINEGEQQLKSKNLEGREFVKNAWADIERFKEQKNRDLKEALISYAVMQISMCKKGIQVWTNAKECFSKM

GFP-SNX1 = target: T2, GFP-SNX1 (UniProt Q13596-1 1-522); experiment: as above; details: partners not purified
T2 construct: Sorting nexin 1 (SNX1); pEGFP C1 SNX1, gift of P. J. Cullen; also called GFP-SNX1 WT; pEGFP C1 SNX1

GFP-SNX8 = target: T3, GFP-SNX8 (UniProt Q9Y5X2 1-465); experiment: as above; details: partners not purified
T3 construct: Sorting nexin 8 (SNX8); the plasmid is not described in the methods; source: HEK293T, transiently transfected, in lysate
T3 sequence (looked up): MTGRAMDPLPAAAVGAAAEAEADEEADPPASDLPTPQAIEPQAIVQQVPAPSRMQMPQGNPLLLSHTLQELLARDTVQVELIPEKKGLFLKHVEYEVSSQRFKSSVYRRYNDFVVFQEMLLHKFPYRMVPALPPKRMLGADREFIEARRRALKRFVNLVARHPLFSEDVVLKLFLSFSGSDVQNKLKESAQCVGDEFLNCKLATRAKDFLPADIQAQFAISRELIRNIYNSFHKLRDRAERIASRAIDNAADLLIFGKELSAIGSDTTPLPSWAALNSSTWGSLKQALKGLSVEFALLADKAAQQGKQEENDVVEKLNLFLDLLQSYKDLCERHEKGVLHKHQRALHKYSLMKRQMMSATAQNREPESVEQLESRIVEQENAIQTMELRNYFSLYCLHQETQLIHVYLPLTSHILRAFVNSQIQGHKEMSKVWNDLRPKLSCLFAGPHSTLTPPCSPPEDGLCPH

GFP-SNX32 = target: T4, GFP-SNX32 (UniProt Q86XE0-1 1-403); experiment: as above; details: partners not purified
T4 construct: Sorting nexin 32 (SNX32, SNX6b); pEGFP C1 SNX32 FL, gift of P. J. Cullen; also called GFP-SNX32 WT; pEGFP C1 SNX32 FL; source: HEK293T or HeLa, transiently transfected, in lysate
T4 sequence (looked up): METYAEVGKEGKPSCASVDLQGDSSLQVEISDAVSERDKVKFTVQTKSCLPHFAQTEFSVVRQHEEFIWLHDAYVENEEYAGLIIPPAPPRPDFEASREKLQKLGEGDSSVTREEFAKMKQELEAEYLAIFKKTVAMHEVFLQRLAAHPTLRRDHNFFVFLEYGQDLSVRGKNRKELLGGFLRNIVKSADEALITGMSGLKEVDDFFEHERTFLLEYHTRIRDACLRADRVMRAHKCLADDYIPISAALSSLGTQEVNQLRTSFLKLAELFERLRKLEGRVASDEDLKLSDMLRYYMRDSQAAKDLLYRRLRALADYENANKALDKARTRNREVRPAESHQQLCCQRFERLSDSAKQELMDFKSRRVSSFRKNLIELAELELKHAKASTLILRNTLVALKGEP

GFP-SNX4 [2] = target: T5, GFP-SNX4 (UniProt O95219-1 1-450); experiment: co-IP; GBP-IP as above with lysates of HeLa cells transiently transfected with wild-type or mutant GFP-SNX4 and HA-SNX32 (legend of Figure 1H); values are the ratio of HA to GFP band intensity; details: partners not purified
T5 construct: Sorting nexin 4 (SNX4); pEGFP C1 SNX4, gift of P. J. Cullen; also called GFP-SNX4 WT; pEGFP C1 SNX4; source: HEK293T or HeLa, transiently transfected, in lysate
T5 sequence (looked up): T1 chain

T2 sequence (Q13596 whole entry): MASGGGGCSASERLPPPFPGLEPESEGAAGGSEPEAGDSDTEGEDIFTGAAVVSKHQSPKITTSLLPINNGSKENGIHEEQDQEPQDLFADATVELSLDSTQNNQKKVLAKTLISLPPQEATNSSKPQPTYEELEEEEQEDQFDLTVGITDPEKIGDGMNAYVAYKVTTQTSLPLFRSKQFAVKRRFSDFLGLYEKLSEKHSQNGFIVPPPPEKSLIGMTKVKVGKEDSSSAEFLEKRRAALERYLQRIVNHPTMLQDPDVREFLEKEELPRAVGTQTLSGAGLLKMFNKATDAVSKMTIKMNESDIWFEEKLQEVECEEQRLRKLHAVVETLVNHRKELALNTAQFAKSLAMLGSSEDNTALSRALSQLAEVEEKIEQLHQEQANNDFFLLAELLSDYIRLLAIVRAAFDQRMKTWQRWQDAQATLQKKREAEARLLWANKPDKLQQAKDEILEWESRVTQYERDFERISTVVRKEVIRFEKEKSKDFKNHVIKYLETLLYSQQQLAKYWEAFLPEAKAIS

HA-SNX32 A226E (from UniProt Q86XE0-1 1-403) (natural protein)
ratio of HA to GFP band intensity (GFP-SNX4 [1]): 0.65

B1: HA-SNX32 full-length (FL) (natural protein, UniProt Q86XE0-1 1-403, looked up)
chain: T4 sequence (looked up)
notes: Sorting nexin 32 (SNX32, SNX6b); pcDNA3 HA N(I)-SNX32 FL subcloned from pEGFP C1-SNX32FL; also called HA-SNX32FL; HA-SNX32 WT; source: HEK293T or HeLa, transiently transfected, in lysate
ratio of HA to GFP band intensity (GFP-SNX4, O95219): 0.92
ratio of HA to GFP band intensity (GFP-SNX1): 0.98
ratio of HA to GFP band intensity (GFP-SNX8): 0.62
ratio of HA to GFP band intensity (GFP-SNX32): 0.85

B2: HA-SNX32 E256R (natural protein, UniProt Q86XE0-1 1-403, looked up)
chain: T4 sequence (looked up) with E256R
notes: Sorting nexin 32 (SNX32) with a point mutation, made by site-directed mutagenesis of HA-tagged SNX32; also called pcDNA3 HA N(I)-SNX32E256R; source: HeLa, transiently transfected, in lysate
ratio of HA to GFP band intensity (GFP-SNX4 [2]): 0.66

B3: HA-SNX32 Q259R (natural protein, UniProt Q86XE0-1 1-403, looked up)
chain: T4 sequence (looked up) with Q259R
notes: Sorting nexin 32 (SNX32) with a point mutation, made by site-directed mutagenesis of HA-tagged SNX32; also called pcDNA3 HA N(I)-SNX32 Q259R; source: HeLa, transiently transfected, in lysate
ratio of HA to GFP band intensity (GFP-SNX4 [2]): 0.75

B4: HA-SNX32 R220E (natural protein, UniProt Q86XE0-1 1-403, looked up)
chain: T4 sequence (looked up) with R220E
notes: Sorting nexin 32 (SNX32) with a point mutation, made by site-directed mutagenesis of HA-tagged SNX32; also called pcDNA3 HA N(I)-SNX32 R220E; source: HeLa, transiently transfected, in lysate
ratio of HA to GFP band intensity (GFP-SNX4 [2]): 1.02

B5: HA-SNX32 R366E (natural protein, UniProt Q86XE0-1 1-403, looked up)
chain: T4 sequence (looked up) with R366E
notes: Sorting nexin 32 (SNX32) with a point mutation, made by site-directed mutagenesis of HA-tagged SNX32; also called pcDNA3 HA N(I)-SNX32 R366E; source: HeLa, transiently transfected, in lysate
ratio of HA to GFP band intensity (GFP-SNX4 [2]): 0.49
